Measured values taken from patent publication US20030068675, “Position dependent recognition of GNN nucleotide triplets by zinc fingers” (published 2003).
Residue numbers refer to the chain shown, from its start.

Columns and labels:
Assay in all cases: EMSA
Settings in all cases: tags: MBP fusion
ZFP SBS#1440 = ZFP SBS#1440 (synthetic)
Procedure, shortened: (§1)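 Purified ZFP was titrated against labeled double-stranded target (1 nM or lower, at least 10-fold below expected Kd) carrying the natural binding site with flanks. Binding buffer was 10 mM Tris pH 7.5, 100 mM KCl, 1 mM MgCl2, 0.1 mM ZnCl2, 5 mM DTT, 10% glycerol, 0.02% BSA, with equilibration for at least 45 min. Bound and free target were separated on a 10% polyacrylamide gel.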

ZFP SBS#1439 = ZFP SBS#1439 (synthetic)
ZFP SBS#1439 (synthetic), sequence (chain, as listed by the source): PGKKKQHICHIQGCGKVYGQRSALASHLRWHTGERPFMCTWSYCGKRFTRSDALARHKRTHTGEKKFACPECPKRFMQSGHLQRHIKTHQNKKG
Procedure, shortened: as §1

ZFP SBS#1477 = biological target: T1, ZFP SBS#1477 (synthetic)
T1 chain: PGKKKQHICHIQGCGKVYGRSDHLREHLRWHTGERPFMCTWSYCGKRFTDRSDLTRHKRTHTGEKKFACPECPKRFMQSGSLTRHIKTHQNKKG
Procedure, shortened: as §1

ZFP SBS#1444 = ZFP SBS#1444 (synthetic)
ZFP SBS#1444 (synthetic), sequence (chain, as listed by the source): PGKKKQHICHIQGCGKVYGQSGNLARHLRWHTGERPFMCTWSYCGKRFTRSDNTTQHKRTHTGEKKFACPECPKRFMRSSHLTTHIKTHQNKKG
Procedure, shortened: as §1

ZFP SBS#1443 = ZFP SBS#1443 (synthetic)
Procedure, shortened: as §1

ZFP SBS#1446 = ZFP SBS#1446 (synthetic)
ZFP SBS#1446 (synthetic), sequence (chain, as listed by the source): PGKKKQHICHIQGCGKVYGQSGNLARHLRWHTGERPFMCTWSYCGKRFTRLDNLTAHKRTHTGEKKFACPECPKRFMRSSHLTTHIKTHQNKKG
Procedure, shortened: as §1

ZFP SBS#1445 = biological target: T2, ZFP SBS#1445 (synthetic)
T2 chain: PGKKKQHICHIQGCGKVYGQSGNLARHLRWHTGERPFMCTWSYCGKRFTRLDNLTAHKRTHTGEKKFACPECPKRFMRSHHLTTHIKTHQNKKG
Procedure, shortened: as §1

ZFP SBS#1455 = ZFP SBS#1455 (synthetic)
ZFP SBS#1455 (synthetic), sequence (chain, as listed by the source): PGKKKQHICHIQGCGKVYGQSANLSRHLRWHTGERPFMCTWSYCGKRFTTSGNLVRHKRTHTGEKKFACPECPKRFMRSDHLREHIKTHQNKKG
Procedure, shortened: as §1

ZFP SBS#1462 = ZFP SBS#1462 (synthetic)
ZFP SBS#1462 (synthetic), sequence (chain, as listed by the source): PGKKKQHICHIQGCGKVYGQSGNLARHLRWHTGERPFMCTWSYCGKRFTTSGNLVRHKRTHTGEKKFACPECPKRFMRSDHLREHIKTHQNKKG
Procedure, shortened: as §1

ZFP SBS#1466 = biological target: T3, ZFP SBS#1466 (synthetic)
T3 chain: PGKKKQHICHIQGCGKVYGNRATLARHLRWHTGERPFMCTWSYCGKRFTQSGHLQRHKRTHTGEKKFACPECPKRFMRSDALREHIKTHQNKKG
Procedure, shortened: as §1

ZFP SBS#1465 = biological target: T4, ZFP SBS#1465 (synthetic)
T4 chain: T3 chain with N20T, R21T, A22S, T23A, A25T
Procedure, shortened: as §1

ZFP SBS#1479 = biological target: T5, ZFP SBS#1479 (synthetic)
T5 chain: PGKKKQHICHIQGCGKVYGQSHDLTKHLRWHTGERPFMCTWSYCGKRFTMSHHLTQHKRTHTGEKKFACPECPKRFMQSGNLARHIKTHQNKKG
Procedure, shortened: as §1

ZFP SBS#1480 = biological target: T6, ZFP SBS#1480 (synthetic)
T6 chain: T5 chain with Q20N, S21K, H22T, T25G, M50T, H52G, T55V
Procedure, shortened: as §1

ZFP SBS#1481 = biological target: T7, ZFP SBS#1481 (synthetic)
T7 chain: T3 chain with R21K, A22T, T23D, A25G, R26K, Q50T, G52D, Q55A, R56S, A81E
Procedure, shortened: as §1

ZFP SBS#1463 = ZFP SBS#1463 (synthetic)
Procedure, shortened: as §1

ZFP SBS#1464 = biological target: T8, ZFP SBS#1464 (synthetic)
T8 chain: T2 chain with Q20R, G22D, L51S, A56R, R78D, S79R, H80S, H81N, T84R
Procedure, shortened: as §1

ZFP SBS#1461 = biological target: T9, ZFP SBS#1461 (synthetic)
T9 chain: T2 chain with Q20R, G22A, L51S, A56R, R78D, S79R, H80S, H81N, T84R
Procedure, shortened: as §1

ZFP SBS#1454 = ZFP SBS#1454 (synthetic)
Procedure, shortened: as §1

ZFP SBS#1456 = ZFP SBS#1456 (synthetic)
ZFP SBS#1456 (synthetic), sequence (chain, as listed by the source): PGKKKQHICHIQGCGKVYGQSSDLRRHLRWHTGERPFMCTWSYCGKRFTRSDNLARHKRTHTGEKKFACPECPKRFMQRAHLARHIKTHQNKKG
Procedure, shortened: as §1

ZFP SBS#1468 = biological target: T10, ZFP SBS#1468 (synthetic)
T10 chain: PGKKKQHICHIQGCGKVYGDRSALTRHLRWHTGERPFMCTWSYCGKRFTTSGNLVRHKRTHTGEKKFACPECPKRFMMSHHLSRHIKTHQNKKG
Procedure, shortened: as §1

ZFP SBS#1470 = biological target: T11, ZFP SBS#1470 (synthetic)
T11 chain: T10 chain with M78Q, S79R, H80A, S83E
Procedure, shortened: as §1

ZFP SBS#1469 = biological target: T12, ZFP SBS#1469 (synthetic)
T12 chain: T10 chain with M78T, H80G, S83V
Procedure, shortened: as §1

ZFP SBS#1441 = ZFP SBS#1441 (synthetic)
ZFP SBS#1441 (synthetic), sequence (chain, as listed by the source): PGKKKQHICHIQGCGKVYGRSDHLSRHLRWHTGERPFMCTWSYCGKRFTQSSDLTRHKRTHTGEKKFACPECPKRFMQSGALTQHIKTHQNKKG
Procedure, shortened: as §1

ZFP SBS#1412 = biological target: T13, ZFP SBS#1412 (synthetic)
T13 chain: T3 chain with N20R, R21S, A22D, T23S, A25L, Q50E, S51R, H53T, Q55A
Procedure, shortened: as §1

ZFP SBS#1434 = biological target: T14, ZFP SBS#1434 (synthetic)
T14 chain: T1 chain with H23S, R25L, E26R, Q78R, G80D, S81A, T83R, R84E
Procedure, shortened: as §1

ZFP SBS#1442 = biological target: T15, ZFP SBS#1442 (synthetic)
T15 chain: T2 chain with Q20E, S21R, N23T, L51S, N53H, A56T, R78D, S79R, H80S, T84K
Procedure, shortened: as §1

ZFP SBS#1435 = biological target: T16, ZFP SBS#1435 (synthetic)
T16 chain: T1 chain with R25S, E26R, D50R, R51S, S52D, D53H, R56T, S81N, R84K
Procedure, shortened: as §1

ZFP SBS#1398 = biological target: T17, ZFP SBS#1398 (synthetic)
T17 chain: T5 chain with Q20R, H22D, D23H, T25S, K26R, M50R, H52D, Q56T, A83R, R84T
Procedure, shortened: as §1

ZFP SBS#1436 = biological target: T18, ZFP SBS#1436 (synthetic, UniProt P08047)
T18 chain: T2 chain with Q20T, G22D, N23H, R26S, L51S, T55A, A56R, H80D
Procedure, shortened: as §1

ZFP SBS#1399 = biological target: T19, ZFP SBS#1399 (synthetic, UniProt P08047)
T19 chain: T2 chain with Q20T, S21K, G22Q, N23H, A25K, R26T, L51S, T55A, A56R, H80D
Procedure, shortened: as §1

ZFP SBS#558 = ZFP SBS#558 (synthetic)
ZFP SBS#558 (synthetic), sequence (chain, as listed by the source): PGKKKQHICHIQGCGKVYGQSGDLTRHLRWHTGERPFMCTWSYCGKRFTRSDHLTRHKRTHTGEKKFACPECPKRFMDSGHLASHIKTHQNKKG
Procedure, shortened: as §1

ZFP SBS#1262 = ZFP SBS#1262 (synthetic)
ZFP SBS#1262 (synthetic), sequence (chain, as listed by the source): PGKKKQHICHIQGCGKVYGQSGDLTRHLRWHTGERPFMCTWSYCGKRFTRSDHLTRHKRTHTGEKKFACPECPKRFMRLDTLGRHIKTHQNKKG
Procedure, shortened: as §1

ZFP SBS#1261 = ZFP SBS#1261 (synthetic)
Procedure, shortened: as §1

ZFP SBS#1263 = ZFP SBS#1263 (synthetic)
Procedure, shortened: as §1

ZFP SBS#1431 = biological target: T20, ZFP SBS#1431 (synthetic)
T20 chain: T3 chain with N20E, A22G, Q50D, S51R, G52S, H53D, Q55T, A81D, R83A, E84S
Procedure, shortened: as §1

ZFP SBS#1430 = biological target: T21, ZFP SBS#1430 (synthetic)
T21 chain: T3 chain with N20E, A22G, Q50D, S51R, G52S, H53D, Q55T, A81D, R83T, E84K
Procedure, shortened: as §1

ZFP SBS#1432 = biological target: T22, ZFP SBS#1432 (synthetic)
T22 chain: T3 chain with N20E, A22G, Q50E, S51R, H53T, Q55A, A81D, R83T, E84K
Procedure, shortened: as §1

ZFP SBS#1440 (synthetic), sequence (chain, as listed by the source): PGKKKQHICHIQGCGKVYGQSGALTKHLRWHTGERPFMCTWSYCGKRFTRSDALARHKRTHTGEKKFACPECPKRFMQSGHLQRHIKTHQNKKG

B1: GGAGTGTTA (dsDNA)
DNA 1: GGAGTGTTA
DNA 2: TAACACTCC
ZFP SBS#1440
  Kd: 35 pM
ZFP SBS#1439
  Kd: 75 pM

B2: GCAGCCCGG (dsDNA)
DNA 1: GCAGCCCGG
DNA 2: CCGGGCTGC
ZFP SBS#1477
  Kd: 2310 pM

B3: TGGAAGGAA (dsDNA)
DNA 1: TGGAAGGAA
DNA 2: TTCCTTCCA
ZFP SBS#1444
  Kd: 90 pM
ZFP SBS#1443
  Kd: 220 pM
ZFP SBS#1446
  Kd: 420 pM
ZFP SBS#1445
  Kd: 182 pM

B4: CGGGATGAA (dsDNA)
DNA 1: CGGGATGAA
DNA 2: TTCATCCCG
ZFP SBS#1455
  Kd: 43 pM
ZFP SBS#1462
  Kd: 50 pM

B5: CTGGGAGTT (dsDNA)
DNA 1: CTGGGAGTT
DNA 2: AACTCCCAG
ZFP SBS#1466
  Kd: 17 pM
ZFP SBS#1465
  Kd: 18 pM

B6: GAAAGTTCA (dsDNA)
DNA 1: GAAAGTTCA
DNA 2: TGAACTTTC
ZFP SBS#1479
  Kd: 37000 pM
ZFP SBS#1480
  Kd: 62500 pM
ZFP SBS#1481
  Kd: 37000 pM

B7: GAGGCTGTT (dsDNA)
DNA 1: GAGGCTGTT
DNA 2: AACAGCCTC
ZFP SBS#1463
  Kd: 3 pM

B8: GACGAGGAG (dsDNA)
DNA 1: GACGAGGAG
DNA 2: CTCCTCGTC
ZFP SBS#1464
  Kd: 2 pM
ZFP SBS#1461
  Kd: 14 pM

B9: GGAGAGGCT (dsDNA)
DNA 1: GGAGAGGCT
DNA 2: AGCCTCTCC
ZFP SBS#1454
  Kd: 10 pM
ZFP SBS#1456
  Kd: 16 pM

B10: GGTGATGTC (dsDNA)
DNA 1: GGTGATGTC
DNA 2: GACATCACC
ZFP SBS#1468
  Kd: 80 pM
ZFP SBS#1470
  Kd: 156 pM
ZFP SBS#1469
  Kd: 280 pM

B11: ATAGCTGGG (dsDNA)
DNA 1: ATAGCTGGG
DNA 2: CCCAGCTAT
ZFP SBS#1441
  Kd: 262 pM

B12: CTGGCCGTG (dsDNA)
DNA 1: CTGGCCGTG
DNA 2: CACGGCCAG
ZFP SBS#1412
  Kd: 172 pM
ZFP SBS#1434
  Kd: 51 pM

B13: TGCTGGGCC (dsDNA)
DNA 1: TGCTGGGCC
DNA 2: GGCCCAGCA
ZFP SBS#1442
  Kd: 360 pM

B14: TAATGGGGG (dsDNA)
DNA 1: TAATGGGGG
DNA 2: CCCCCATTA
ZFP SBS#1435
  Kd: 57 pM
ZFP SBS#1398
  Kd: 65 pM

B15: TGGGAGTGT (dsDNA)
DNA 1: TGGGAGTGT
DNA 2: ACACTCCCA
ZFP SBS#1436
  Kd: 26 pM
ZFP SBS#1399
  Kd: 100 pM

B16: TGCGGGGCA (dsDNA)
DNA 1: TGCGGGGCA
DNA 2: TGCCCCGCA
ZFP SBS#558
  Kd: 21000 pM
ZFP SBS#1262
  Kd: 3000 pM
ZFP SBS#1261
  Kd: 200 pM
ZFP SBS#1263
  Kd: 21000 pM

B17: TCGGCCGCC (dsDNA)
DNA 1: TCGGCCGCC
DNA 2: GGCGGCCGA
ZFP SBS#1431
  Kd: 6170 pM
ZFP SBS#1430
  Kd: 352 pM
ZFP SBS#1432
  Kd: 1780 pM
